Assay results as given in patent publication US20260217797A1 (Takeda / Millennium, published 2026).

B1: A-18 (antibody, V domains shown)
VH: EVQLLESGGGLVQPGGSLRLSCAASGFTFSRYWMHWVRQAPGKGLVWVSRINSDGSSTTYADSVKGRFTISRDNAKNTLYLQMNSLRAEDTAVYYCARELYYYDSRGAEEGEGWFDPWGQGTLVTVSS
VL: QSVLTQPPSVSGAPGQRVTISCTGISSNIGAGYDVHWYQQLPGTAPKLLIYGNSNRPSGVPDRFSASKSGTSAPLAITGLQAEDEADYYCQSSDRSLSGSVFGTGTKLTVL
B2: A-9 (antibody, V domains shown)
VH: EVQLVESGGGLVKPGRSLRLSCAASGFTFADYAMSWFRQAPGKGLEWVGFIRSKPYGGTTEYAASVKGRFTISRDDSKSIAYLQMNSLKTEDTAVYYCSRDPWYCSGGDCYAVTGSWFDPWGQGTLVTVSS
VL: DIVLTQSPSSLSASVGDRVTITCQASQDIKKYLNWYQQKPGKAPKLLIYDVSNLETGVPSRFSGSGSGTDFTFTISSLQPEDVAIYYCQQYDNLPQTFGQGTKVDIK
B3: A-22 (antibody, V domains shown)
VH: not shown
VL: EIVLTQSPGTLSLSPGERATLSCRASQTVRSDLAWYQQKPGQAPRLLIYGASTRATDISDRFSGSGSGTEFTLTISSLQSEDFAVYYCQQYYEWPPHSDSFGGGTKVEIK
B4: A-6 (antibody, V domains shown)
VH: QVQLVQSGGGVVQPGRSLRLSCAASGFTFSNFAMHWVRQAPGKGLEWVAVILYDGINKYYADSVKGRFTISRGNSKNTLSLQMNSLRAEDTAVYYCARAQNYYDRSGTLQLDAFDIWGQGTMVTVSS
VL: DIVMTQSPSSLSASVGDRVTITCRASQGIRNDLGWYQQKPGKAPKLLIYAASSLQSGVPSRFSGSGSGTDFTLTISSLQPEDFATYYCLQDYNYPLTFGGGTKVEIK

Key:
[1] = biological target: SARS-CoV-2 RBD-mFc (SARS-CoV-2, UniProt P0DTC2 319-541); assay: Octet BLI, IgG, avid
[2] = biological target: SARS-CoV-2 Alpha (B.1.1.7) spike protein (on reporter virus particles) (SARS-CoV-2, UniProt P0DTC2 14-1273); assay: cell-based or functional assay
[3] = biological target: SARS-CoV-2 Beta (B.1.351) spike protein (on reporter virus particles) (SARS-CoV-2, UniProt P0DTC2 14-1273); assay: cell-based or functional assay
[4] = biological target: SARS-CoV-2 Omicron (B.1.529) spike protein (on reporter virus particles) (SARS-CoV-2, UniProt P0DTC2 14-1273); assay: cell-based or functional assay
[5] = biological target: SARS-CoV-2 B.1.1.7 N501Y (Alpha) RBD (SARS-CoV-2, UniProt P0DTC2 319-541); assay: Octet BLI single point, monovalent
[6] = biological target: SARS-CoV-2 B.1.351 (Beta) RBD (SARS-CoV-2, UniProt P0DTC2 319-541); assay: Octet BLI single point, monovalent
[7] = biological target: SARS-CoV-2 P.1 Spike (Gamma) (SARS-CoV-2, UniProt P0DTC2 16-1213); assay: Octet BLI single point, monovalent
[8] = biological target: SARS-CoV-2 B.1.617.2 (Delta) RBD (SARS-CoV-2, UniProt P0DTC2 319-541); assay: Octet BLI single point, monovalent
[9] = biological target: SARS-CoV-2 L452R RBD (Epsilon) (SARS-CoV-2, UniProt P0DTC2 319-541); assay: Octet BLI single point, monovalent
[10] = biological target: SARS-CoV-2 B.1.617.1 (Kappa) RBD (SARS-CoV-2, UniProt P0DTC2 319-541); assay: Octet BLI single point, monovalent
[11] = biological target: SARS-CoV-2 Epsilon (B.1.427/429) spike protein (on reporter virus particles) (SARS-CoV-2, UniProt P0DTC2 14-1273); assay: cell-based or functional assay
[12] = biological target: SARS-CoV-2 Gamma (P.1) spike protein (on reporter virus particles) (SARS-CoV-2, UniProt P0DTC2 14-1273); assay: cell-based or functional assay

Binder | Kd [1] [nM] | PsV neutralization IC50 [2] [µg/mL] | PsV neutralization IC90 [2] [µg/mL] | PsV neutralization IC50 [3] [µg/mL] | PsV neutralization IC90 [3] [µg/mL] | PsV IC50, Test 1 [4] [nM] | PsV IC50, Test 2 [4] [nM] | Kd [5] [nM] | Kd [6] [nM] | Kd [7] [nM] | Kd [8] [nM] | Kd [9] [nM] | Kd [10] [nM] | PsV neutralization IC50 [11] [µg/mL] | PsV neutralization IC90 [11] [µg/mL] | PsV neutralization IC50 [12] [µg/mL] | PsV neutralization IC90 [12] [µg/mL]
B1 | 0.0757 | 0.316 | 2.04 | 0.259 | 1.65 | 1.96 | 8.84 | 1.03 | 0.444 | 0.553 | 0.649 | 1.22 | 0.714 |  |  |  | 
B2 | 0.147 | 0.019 | 0.118 | 0.028 | 0.184 | 20.8 |  | 10 | 17.8 | 15 | 12.9 |  | 6.28 |  |  |  | 
B3 |  | 1.53 | 9.54 | 2.13 | 12.8 |  |  | 0.35 | 0.25 | 0.258 |  | 0.756 | 0.218 | 1.49 | 25.3 | 0.335 | 0.736
B4 | 0.146 | 0.192 | 1.21 | 0.171 | 1.47 |  |  | 1.46 |  | 2.05 |  | 1.45 |  |  |  |  | 
